According to the nanobody polyreactivity screen of Harvey et al. (2022):

Assay: yeast display, Sf9 membrane polyspecificity reagent, FACS + sequencing; frameworks hold sequencing errors
Outline: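 After 36–48 hours of galactose induction, yeast (Saccharomyces cerevisiae BJ5465) displaying a synthetic nanobody library were stained at 4 °C for 1 hour with 10% biotinylated, detergent-solubilized Sf9 membrane reagent. Streptavidin microbeads enriched the stained cells before FACS sorting into low and high (top ~1%) gates on anti-HA and streptavidin fluorescence. Each clone's polyreactivity label reflects its gate of origin.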

| Sequence | polyreactivity (PSR sort gate) |
| --- | --- |
| QVQLVESGGGLVQAGGSLRLSCAASGRTFQDNAMGWYRQAPGKEREFVAAISWSGDSTYYADSVKGRFTISRDNAKNTVYLQMNSLKPEDTAVYYCAASRVIPSYPYYKYDYWGQGTQVTVSS | low polyreactivity |
| QVQLEESGGGLVQAGGSLRLSCAASGYILNDYTKGWYRQAPGKERELVAAITSSGDRTYYADSVKGRFTISRDNAKNTVYLQMNSLNPEDTAVYYCAADIYLGDYYYWGLGTQVTVSS | low polyreactivity |
| QVQLVESGGGLVQAGGSLRLSCAASGSTFAGYVMGWYRQAPGKERELVAGISYRGGRTYYADSVKGRFTISRDNAKNTVYLQMNSLKPEDTAVYYCAAENAVTGTDGEYYYWGQGTQVTVSS | high polyreactivity |
| QVQLVESGGGLVQAGGTLRLSSAASGFTFGNYAMGWYRQAPGKERELVAAISGRSGRTYYADSVKGRFTISRDNAKNTVYLQMISLKPEVTAVYYCAKKVFGWEYYYWGQGTQVTVSS | high polyreactivity |
| QVQLLDSGGGLVQAGGSLRLSCAASGFIFRPYPMACYRQSPGKERELVAPITGGGSTYYADSVKGRFTISRENAKNTVYLQMNSLKPEDTAVYYCNADRRRRSGGFAGWHFQRNDFWGQGTQVTVSS | low polyreactivity |
| QVQLVESVGGLVQAGGRLRLSCAASGLIFDDYSMGCYRQAPGKEREFVSAISWSDGTTYYADSVKGRFTISRDNAKNTVYLQMNSLKPEDTAVYYCAARLARAGYWRRNYYYWGQGTQVTVSS | high polyreactivity |
| QVQLVESGGGLVQAGGSLRLSCAASGSIFGDYAMGWYRQAPGKERELVAAITSSGGITYYADSVKGRFTISRDNAKNTVYLQMNSLKPEDTAVYYCAAYGYGSNYRYTGYYYWGQGTQVTVSS | low polyreactivity |
| QDQLVESGGGLVQAGGSLRLSCAASGSTFTYYAMGWYRQAPGKERELVAAIRNSDGTTYYADSVKGRFTLSRDTAKFTVYLQMNSLKPEDTAVYYCAAGPRGRWSTYDYWGQGTQVNVSS | low polyreactivity |
| QVQLVESGGGLVQAGGSLRLSCAASGSTFRYYAMGWYRQAPGKEREMVAAISTSGGRTYYADSVKGRFTISRDNAKNTVYLQLNSLKPEDTAVYYCNARESRGYSYQTWKYYYWGQGTQVTVSS | high polyreactivity |
| QVQLVESGGGLVQAGGSLRLSCAASGGIFSRYAIGWYRQAPGKEREFVAAISFSGASTYYADSVKGRFTISRDNAKNTVYLQMNSLKPEDTAVYYCAADRVWPYYQYDYWGQGTQVTVSS | low polyreactivity |
| QVQLLESGGGLVQAGGSLRLSCAASGLTFSSYTMGWYRQAPGKERELVAANTRRGTSTYYADSVKGRFTISRDNAKNTVYLQMNSLKPEDTAVYYCNALVYDEYGYYHYYLRNGGYYWGQGTQVTVSS | high polyreactivity |
| QVQLQESGGGLVQAGGSLRLSCAASGNISVTGFMGWYRQAPGKERELVASIGIGGTTYYADSVKGRFSISRDNAKNTVYLKMNSLKQEDTSVYYCAARYLYYAYSYWGQGTQVTVSS | low polyreactivity |
| QVQLVESGGGLVQAGGSLRLSCAASGITLNRNAMGWYKQAPGKERELVARISRRGGTTYYADSVKGRFTISRDNAKNTVYLQLNSLKPEDSAVYYCAKVRRRWGYPSYSYPYGYWGQGTQVTVSS | high polyreactivity |
| QVHHEETGGGIVQAGGSLRLSCAASGRIFDYIAMGWYRQAPGKERELVAAISQSGGSTYYADSVKGRFTISRDNAKNTVYLQMNSLKPEDTAVYYCAAFISRSRNEYWGQGTLVTVSS | high polyreactivity |
| QVQLVESGGGLVQAGGSLRLRCAASGRTFSAYAMGWYRQAPGKERELVAAISRRGGSTYYADSVKWRFTISRDNAKNTVYFQMNSLKPSDTAVYYCAADVYKQYGFYYWGQVTQVTVSS | high polyreactivity |
| KVQLVESGGGLVQAGGSLRLSCAPSGRIFQPNVMGWYRQPPGKVRELAAAIRSVSSTYYADSVKGRFTISRDNAKNSVYLQMNSLKPEDTAVYYCAARLFLRGYTRGNYLGQGTQVTVSS | high polyreactivity |
| QVQLVESGGGLVQAGGSLRLSCAASGSIFGYYAMGWYRQAPGKEREFVAAISWSGGRTTYADSVKGRFTISRDNAKNTVYLQMNSLKPEDTAVYYCAAAARRKFYYWGQGTQVTVSS | high polyreactivity |
| QVQRVESGGGLVQAVGSLRLSCPASGIISVCNARGWYRQAPGKERELVASINSGGSTNYADSVKGRFTISRDNAKNTVYLQMNSLKPEDTAVYYCARLHDIRSPYSGTPVRDLPDEDDYWGQGTQVTVSS | low polyreactivity |
| QVQLVESGGGLVQAGGSLRLSCAASGSTFFHNAMGWYRQAPGKEREWVAAINWNGGSTYYADSVKGRFTISRDNAKNTVYLQMNSLKPEDTAVYYCAADIYTYLGAYYIGYYWGQGTQVTVSS | low polyreactivity |
| QVQLVESGGGLVQAGGSLRLSCAASGYIFGRNAMGWYRQAPGKEREFFAAISSSGSSTYYADSVKGRFTISRDKAKNTVYLQMNSLKPEDTAVYYCNADRLRSTHDYWGQGTQVTVSS | high polyreactivity |
| QVQLVESGGGLVQAGGSLRLSCAASGIIFRFYARGWYRQAPGKERELVAAISSSGTRTYYADSVKGRFTISRDNAKNTVYLQMNSLKPEETAVYYCNAAYHYYDYDYWGQGTQVTVSS | high polyreactivity |
| QVQLVESGGGLVQAGCSLRLSCAASGRTFYHYGMGWYRQAPGKERELVAAINFSGGSTNYADSVKGRFTISRDNAKNTVYLQMNSLKTEDTAVYNCNKEGRPDRDYWGQGTQVTVSS | low polyreactivity |

| Sequence | polyreactivity (PSR sort gate) |
| --- | --- |
| QVQLVESGGGLVQAGGSLRLSCAASGRTFVPYDMGWYRQAPGKERELVAAISSGDSTNYTDSVKGRFTISRDNAKNTVYLQMNSLKPEDTAVYYCAADLTYTMDHWGQGTQVTVSS | low polyreactivity |
| QVQLVESGGGLVQAGGSLRLSCAASGSIFASNAMGWYRQAPGKEREFVAAITWRTDRTYYADSVKGRFTISRDNAKNTVYLQMNSLKPEDNAVYYCAADTWFDRFYYWGQGTQVTVSS | high polyreactivity |
| QVQLVESGGGLVQAGGSLRLSCAASGRIFYSYAMGWYRQATGKEREMVASISRSGAITNYADSVKGRFTISRDNAKNPVYLQMNSLIPEDTAVYYCAARLRRVYPPYDYWGQGTQVTVSS | high polyreactivity |
| QVQLVESGGGLVQAGGSLRLSCAASGNIFDTYVMGWYRQAPGKERELVAAITSDGGTYYADSVKGRFTIARDNAKNTVYLQMNSLKPEDTAVYYCAADTYYYPIQDYWGQGTQVTVSS | low polyreactivity |
| QVQLVESGGGLVQAGGSLRLSCAASGSIFYVYAMGWYRQAPGKVRELVATISSSAGSTYYADSVKGRFTISRDNAKNTVYLQMNSLKPEDTAVYYCIADSFLSWVYRYVYYGSAYWGQGSQVTVSS | low polyreactivity |
| QVQLVESGGGLVQAGGSLRLSCAASGNTFVRNVMGWYRQAPGKERELVAAITWRSVRTYYADSVKGRFTISRDTAKNTVYLQMNSLKPEDTAVYYCAAASASRHGEYDYWGQGTQVTVSS | low polyreactivity |
| QVQLVESGGGLVQAGGSLRLSCAASGSTFYLYAMGWYRQAPGKEREFVAAISWSGGRTYYADSVKGRFTISRDNAKNTVYLQMNSLKPEDTAVYYCAARRRYTWQYTRYDMGYWGQGTQVTVSS | low polyreactivity |
| QVQLVESGGGLVQAGGSLRLTCAASGRNFDYNARGWYRQAPGKEREFVAPISGRGGSTYYADSVKGRFTISRDNAKNRVYLQMNSLKPEDTAVYYCAADWRYRYSGRYDYWGQGTQVTVSS | high polyreactivity |
| QVQLVESGGGLVQAGGSLRLSCAASALTFRVYAMGWYRQAPGKERELVAAISFSGSSTFYADSVKGRFTISRDNAKNTVYLQMNSMKPEDTAVYYCAAGASEAVDVYDYWGQGTQVTVSS | low polyreactivity |
| QVQLVESGGGLVQAGGSLRLSCAASGSPFRTYAIGWYRQAPGKERELVASIDSTGSTNYADSVKGRFTISRDNAKNTVYLQMNCLKAEVTAVYYCAAETYSYPPFYAYDYWGQGTQVTVSS | low polyreactivity |
| QVQLVESGGGLVQAGGSLRLSCAASGSTFYYYAMGWYRQAPGKERELVAAIDWSGESTYYADSVKGRFTISRDNAKNTVYLQMNSLKPEDTAVYYCAAVRSAQRWRRYYYWGQGTQVTVSS | low polyreactivity |
| QVQLVESAAGLVQAGASLRLSCAPSGSIFSGNALGWSRQAPGKARELVAAISQNGGRTYYADSVKGRFTISRDYAKNTVYLQMNILKPDDTAVYYCAALAVRFYSSYDYWGQGTQVTVSS | high polyreactivity |
| QVQLVESGGGLVQAGGSLRLSCAASGSIFTWYAMGWYRQAPGKERELVAAITRGGSTYADSVKGRFTISRDNAKNTVYLQMNSLKPEDTAVYYCNAVYGVYDFNYWGHGTQVTVSS | low polyreactivity |
| QVQLVESGRGLVQAGGSLRLSCAASGFTFRYYAMGWYRQAPGTERELVAAITYSGGGTYYADSVKGRFTISRDNANYTVYLQMNSLKPEDSAVYYCARRGRKAYAYWGQGTQVTVSS | high polyreactivity |
| QFQLVDSGGALVQAGGSLRLSCAASGFTFYPYAMGWYRQAPGKERELVAAISKRGGSTYYADSVKGRFTISRDHAKNTVYLQMNSLNPEDTAVYYCIAFFNGELYYWGQGTQVTVSS | high polyreactivity |
| QVQLVESGGGLVQAGGSLRLSCAASGRIFGYHARGWSRQAPGKERELVAAIDYTGGSTYYADSVKGRFTISRDNAKNTVYLQMNSLKPEETAVNYCAKDRTTPWEEDAYWGQGTQVTVSS | low polyreactivity |
| QVQLVVSGGGLVQAGGSLRLSCAASGSTFSRNAMGWYRQAPGKERELVASISWSGARTYYADSVKRRFTISRDNAKNTVYLQMNSLKPEDTAVYYCAKFRSYRGPYNFWGQGTQVTVSS | high polyreactivity |
| QVQLVESGGGLVQAGGSLRLSCAASGFIFRWYAMGWYRQAPGKERELVAAISSSSGSTYYADSVKGRFTISRDNAKNTVYLQMNSLKPEDTAVYYCAAESNRRFEGEYWGQGTQVTVSS | high polyreactivity |
| QVQLVESGGGLVQAGGSLRLSCAASGSIFDFYGMGWYRQAPGKERELVATITGTGGGTYYADSVKGRFTISRDNAKNTVYLQMNSLKPEDTAVYYCAADYPYGYWRGLFYYWGHGTQVTVSS | low polyreactivity |
| QVQLEESGGGLVQAGGSLRLSCAASGSIFSIYAMGWYRQAPGKERELVASITRSSGRTYYADSVKGRFTISRDNAKNTVYLQMNSLKPEDTAVYYCAKDYIPLALDADDYWGQGTQVTVSS | low polyreactivity |
| QVQLVESGGGLVQAGGSLRLSCAASGSTFAYYAMGWYRQAPGKERELVAGISGSGGSTYYADSVKGRFTISRDNAKNTVYLQMNSLKPEVTAVYYCAVVQRSKRTYPWYDYWGQGTQVTVSS | low polyreactivity |
